According to PMC3034650 (FEBS letters, 2010):

Target: T1, Human IκBα(67-287), unhydroxylated (human, UniProt P25963 67-287)
T1 sequence (looked up): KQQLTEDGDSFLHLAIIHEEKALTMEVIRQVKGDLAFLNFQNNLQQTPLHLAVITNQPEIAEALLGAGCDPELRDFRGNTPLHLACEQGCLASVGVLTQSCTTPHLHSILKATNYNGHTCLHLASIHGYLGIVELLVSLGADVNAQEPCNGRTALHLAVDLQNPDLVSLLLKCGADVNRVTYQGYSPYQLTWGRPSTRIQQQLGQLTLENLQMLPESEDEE
Assay: SPR

- Kd: 0.062 ± 0.012 nM
B1: NFκB (p50(248-321)/p65(190-321)) (complex)
chain 1: LKIVRMDRTAGCVTGGEEIYLLCDKVQKDDIQIRFYEEEENGGVWEGFGDFSPTDVHRQFAIVFKTPKYKDVNI
chain 2: NTAELKICRVNRNSGSCLGGDEIFLLCDKVQKEDIEVYFTGPGWEARGSFSQADVHRQVAIVFRTPPYADPSLQAPVRVSMQLRRPSDRELSEPMEFQYLPDTDDRHRIEEKRKRTYETFKSIMKKSPFNGP
modifications: biotin at the N-terminus
